The values that follow come from doi:10.1101/2021.03.25.436940.

This series has as its target T1, OsGSTU5 (Oryza sativa, UniProt Q0J294 6-233).
T1 sequence: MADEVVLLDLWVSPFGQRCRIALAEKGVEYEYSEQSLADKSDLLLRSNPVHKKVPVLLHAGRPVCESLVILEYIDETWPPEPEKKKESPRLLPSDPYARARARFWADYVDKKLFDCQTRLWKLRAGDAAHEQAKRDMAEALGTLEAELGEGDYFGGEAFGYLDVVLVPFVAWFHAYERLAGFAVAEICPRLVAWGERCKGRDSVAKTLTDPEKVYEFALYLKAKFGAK
The experiment in a line: EMSA. In general terms: In EMSA bound probe runs differently from free probe, usually more slowly.

B1: 39-nt experimental oligo (ssDNA) (ssDNA)
DNA: GCGGTGGAAGTAGCAACAGCGGTTCTAGCGGCAGCGGCG
B1: the binding result is reported as “no binding”.
